Measurements published in patent publication US20230094463A1 (TRUEBINDING, published 2023).

Assays:
[1] = target: T1, Human GAL3 protein (TrueBinding, QCB200349 / QCB200352; R&D Systems, 8259-GA) (human, UniProt P17931 2-250); experiment: blocking ELISA (GAL3 coated; antibody + biotinylated ITGa3)
T1 construct: also called human galectin-3

[2] = target: T1, Human GAL3 protein (TrueBinding, …); experiment: blocking ELISA (GAL3 coated; antibody + biotinylated ITGaV)
[3] = target: T1, Human GAL3 protein (TrueBinding, …); experiment: blocking ELISA (GAL3 coated; antibody + biotinylated ITGb3)
[4] = target: T2, Human Galectin-3 protein (Acro Biosystems, GA3-H5129) (human, UniProt P17931 2-250); experiment: ELISA, blocking of INSR binding to coated Gal3
T2 construct: Bought protein; also called Gal3-ECD-His; Gal3-His; not shown: linker-spaced 6-histidine tag

[5] = target: T2, Human Galectin-3 protein (Acro …); experiment: SPR (Biacore T200), antibody captured, Galectin-3 as analyte

T2 sequence (P17931 2-250): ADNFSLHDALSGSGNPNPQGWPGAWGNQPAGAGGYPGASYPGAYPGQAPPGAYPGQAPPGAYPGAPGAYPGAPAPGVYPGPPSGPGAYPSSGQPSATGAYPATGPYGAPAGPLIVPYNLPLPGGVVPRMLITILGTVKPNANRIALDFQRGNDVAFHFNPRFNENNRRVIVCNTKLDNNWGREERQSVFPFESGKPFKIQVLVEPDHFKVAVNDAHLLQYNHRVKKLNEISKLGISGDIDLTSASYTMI
T1 sequence (P17931 2-250 limits assumed): as the sequence (P17931 2-250) above

| Binder | percent blockade of GAL3-ITGa3 interaction [1] [%] | percent blockade of GAL3-ITGaV interaction [2] [%] | percent blockade of GAL3-ITGb3 interaction [3] [%] | Gal3-INSR Blocking @ 3 µg/mL [4] [%] | Kd [5] [nM] |
| --- | --- | --- | --- | --- | --- |
| F846C.1H5 (antibody, V domains shown, anti-Gal3 antibody; also called 846.1H5) VH: EVQLLESGGGLVKPGGSLKLSCAASGFTFSSYAMSWVRQTPEKRLEWVASISSGGDTYYPDSVKGRFTISRDNARNILYLQMSSLRSEDTAMYYCASYGNSLFDYWGQGTTLTVSS VL: DVVMTQTPLSLPVSLGDQASISCRSSQSLVHNSGNTYLHWYLQRPGQSPNLLIYKVSNRFSGVPDRFSGSGSGTDFTLKISRVAAEDLGVYFCSQSTHVPPTFGGGTKLEIK | > 90 | – | – | – | – |
| F847C.4B10 (antibody, V domains shown, anti-Gal3 antibody; also called 847.4B10) VH: EVQLVETGGGLVKPGGSLKLSCAASGFTFSSYAMSWVRQTPEKRLEWVASISSGGSTYYPDSVKGRFTISRDNARNILYLQMSSLRSEDTAMYYCTRFTTVVEMDYWGQGTSVTVSS VL: QAVVTQESALTTSPGETVTLTCRSSTGAVTTSNYANWVQEKPDHLFTGLIGGTNNRAPGVPARFSGSLIGDKAALTITGAQTEDEAIYFCALWYSNHLVFGGGTKLTVLR | > 90 | – | – | – | – |
| F846C.1B2 (antibody, V domains shown, also called 846.1B2) VH: QIQLVQSGPELKKPGETVKISCKASGYTFTNYGMNWVKQAPGKGLKWMGWINTYTGEPSYADDFKGRFAFSLETSASTAYLQINNLKNEDMATYFCARWGGYAGDYYAMDFWGQGTSVTVSS VL: NIWLTQSPSSLAVSAGEMVTMTCKSSQSVLYSSNQKNYLAWYQQKPGQSPKLLIYWASTRESGVPDRFTGSGSGTDFSLTISSVQAEDLAVYYCHQYLSSLTFGAGTKLELK | > 90 | > 90 | > 90 | – | – |
| F846C.1H12 (antibody, V domains shown, also called 846.1H12) VH: QIQLVQSGPELKKPGETVKISCKASGYTFTNFGMNWVKQAPGKGLKWMGWINTYTGEPSYADDFKGRFAFSLETSASTAYLQINNLKNEDIATYFCARWGGYAGDYYAMDYWGQGTSVTVSS VL: NIMMTQSPSSLAVSAGQKVTMSCKSSQSVLYSSSQKNYLAWYQQKPGQSPKLLIYWASTRESGVPDRFSGSGSGTDFTLTISSVQPEDLAVYYCHQYLSSLTFGAGTKLELKR | > 90 | – | > 90 | – | – |
| F846TC.16B5 (antibody, V domains shown, also called 846T.16B5) VH: QIQLVQSGPELKKPGETVKISCKASGYTFTNYGMNWVKQAPGKGLKWMGWINTYTGEPAYADDFKGRFAFSLETSASTAYLQINNLKNEDMATYFCARWGGYDGDYYAMDYWGQGTSVTVSS VL: NIMMTQSPSSLAVSAGEKVTMSCKSSQSVLYSSNQKNYLAWYQQKPGQSPKLLIYWASTRESGVPDRFTGSGSGTDFTLTISSVQAEDLAVYYCHQYLSSLTFGAGTKLELKR | > 90 | > 90 | > 90 | – | – |
| 7D8.2D8 (antibody, V domains shown) VH: EVQLVESGGGLVKPGGSLKLSCAASGFTFSSYAMSWVRQTPEKRLEWVATISDGGIYTYYPDNVKGRFTISRDNAKNNLFLQMSHLKSEDTAMYYCVRDGGYWGQGTTLTVSS VL: DVLMTQTPLSLPVSLGDQASISCRSSQSIVHSNGNTYLEWYLQKPGQSPKLLIYKVSNRFSGVPDRFSGSGSGTDFTLKISRVEAEDLGVYYCFQGSHVPLTFGAGTKLELK | – | – | – | 75 | 2.49 |
| 15F10.2D6 (antibody, V domains shown) VH: EVQLVESGGGLVKPGGSLKLSCAASGFAFSSYAMSWVRQTPEKRLEWVATISDGGVYTYYTDHVKGRFTISRDNAEDNLYLQMSHLKSEDTAMYYCVRDGGYWGQGTTLTVSS VL: DVLMTQTPLSLPVSLGDQASISCRSSQSIVHNNGNTYLEWYLQKPGQSPKLLIYKVSNRFSGVPDRFSGSGSGTDFTLKISRVEAEDLGVYYCFQGSHVPLTFGGGTKLELK | – | – | – | 82 | 2.06 |
| 13H12.2F8 (antibody, V domains shown) VH: QIQLVQSGPELKKPGETVKISCKASGYTFTTYGMSWVKQAPGKGLKWMGWINTYSGVPTYADDFKGRFAFSLETSASTAYLQINNLKNEDTATYFCAVPYEYDGAYWGQGTLVTVSA VL: not shown | – | – | – | 97 | 6.07 |
